Earlier results on eight substances are cited in article PMC6173998.

Like-named read-outs stand apart in the source and are kept apart here.

Data set [1] addresses Placental bikunin (Homo sapiens) (UniProt O43291).
Data set [2] has as its target Tissue factor pathway inhibitor-2 (KD1-WT) KD1 (Homo sapiens) (UniProt P48307).
The target of the next data set is Aprotinin (Bos taurus) (UniProt P00974).
In data set [3] the target is Protease nexin-2 (Homo sapiens) (UniProt P05067).
The target in data set [4] is KD APPH Kunitz domain (Homo sapiens) (UniProt Q06481).
Data set [5] concerns the target Corn Hageman factor inhibitor (Zea mays) (UniProt P01088).
In data set [6] the target is KD APPH Kunitz domain (Homo sapiens) (UniProt Q06481). The source holds these as a separate data set.
Data set [7] has the same target. This is another data set of the same source.
Data set [8] shares this target. The source holds these as a separate data set.
Data set [9] concerns the target FXIa (Homo sapiens) (UniProt P03951).
For data set [10] the target is unchanged. This is another data set of the same source.
For data set [11] the target is unchanged. This is another data set of the same source.
For data set [12] the target is unchanged. This is another data set of the same source.

Sequence of KD APPH Kunitz domain (Homo sapiens) (Q06481 306-364): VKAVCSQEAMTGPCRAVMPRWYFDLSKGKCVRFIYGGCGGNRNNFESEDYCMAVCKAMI
Sequence of protease nexin-2 (P05067 18-687): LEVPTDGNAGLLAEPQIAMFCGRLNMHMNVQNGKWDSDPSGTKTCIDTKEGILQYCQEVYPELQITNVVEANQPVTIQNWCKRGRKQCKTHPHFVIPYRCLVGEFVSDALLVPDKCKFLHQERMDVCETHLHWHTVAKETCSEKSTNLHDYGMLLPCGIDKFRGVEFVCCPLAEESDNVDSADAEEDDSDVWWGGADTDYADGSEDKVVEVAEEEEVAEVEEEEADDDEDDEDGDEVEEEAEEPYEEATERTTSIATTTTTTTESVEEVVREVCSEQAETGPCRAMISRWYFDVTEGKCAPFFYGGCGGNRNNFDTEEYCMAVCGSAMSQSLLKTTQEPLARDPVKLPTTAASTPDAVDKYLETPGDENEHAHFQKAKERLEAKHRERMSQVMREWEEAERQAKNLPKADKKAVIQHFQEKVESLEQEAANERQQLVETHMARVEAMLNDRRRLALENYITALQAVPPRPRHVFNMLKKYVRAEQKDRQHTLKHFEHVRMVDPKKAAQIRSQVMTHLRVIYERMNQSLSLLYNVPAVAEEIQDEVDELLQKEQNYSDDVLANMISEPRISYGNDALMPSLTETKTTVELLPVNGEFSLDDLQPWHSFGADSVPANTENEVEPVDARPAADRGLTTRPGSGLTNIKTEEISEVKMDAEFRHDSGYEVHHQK
Sequence of Protease nexin-2 (Homo sapiens) (P05067 18-687): as above
Sequence of Plasmin (P00747 581-810): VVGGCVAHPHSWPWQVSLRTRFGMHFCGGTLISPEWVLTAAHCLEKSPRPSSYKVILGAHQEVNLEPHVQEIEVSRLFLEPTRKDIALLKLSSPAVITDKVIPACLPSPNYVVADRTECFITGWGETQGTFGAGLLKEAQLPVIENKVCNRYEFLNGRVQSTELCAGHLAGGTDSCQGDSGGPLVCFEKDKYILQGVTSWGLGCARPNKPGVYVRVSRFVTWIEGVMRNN
Sequence of TFPI-2 (KD1-WT) KD1 (P48307 36-86): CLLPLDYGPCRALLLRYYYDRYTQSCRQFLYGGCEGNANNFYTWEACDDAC
Sequence of Tissue factor pathway inhibitor-2 (KD1-WT) KD1 (Homo sapiens) (P48307 36-86): as above
Sequence of Placental bikunin (Homo sapiens) (O43291 28-197): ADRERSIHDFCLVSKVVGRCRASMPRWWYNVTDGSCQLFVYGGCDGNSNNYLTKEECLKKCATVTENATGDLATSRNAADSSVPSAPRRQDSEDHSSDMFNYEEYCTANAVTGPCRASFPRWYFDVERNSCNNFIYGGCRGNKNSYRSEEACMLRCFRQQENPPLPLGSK
Sequence of placental bikunin (O43291 28-197): as above
Sequence of corn Hageman factor inhibitor (P01088 29-138): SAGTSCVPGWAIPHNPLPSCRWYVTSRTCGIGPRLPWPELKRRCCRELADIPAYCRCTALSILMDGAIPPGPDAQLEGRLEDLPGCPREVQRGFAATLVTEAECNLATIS
Sequence of Corn Hageman factor inhibitor (Zea mays) (P01088 29-138): as above
Sequence of Plasma kallikrein (P03952 391-638): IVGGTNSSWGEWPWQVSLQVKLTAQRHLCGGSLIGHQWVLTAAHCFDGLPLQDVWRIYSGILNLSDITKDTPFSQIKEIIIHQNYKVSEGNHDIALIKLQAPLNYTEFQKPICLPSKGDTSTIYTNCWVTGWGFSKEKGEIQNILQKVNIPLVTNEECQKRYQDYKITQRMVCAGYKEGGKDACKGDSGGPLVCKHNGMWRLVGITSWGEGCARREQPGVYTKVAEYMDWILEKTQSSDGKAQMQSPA

With Factor XIa (from UniProt P03951), the inhibition constant (Ki) (usually the dissociation constant of the complex between target and ligand, obtained from inhibition or displacement) in data set [1] was 6 nM; in data set [2], 15 nM; with Aprotinin (Bos taurus) it was 288 nM; in [3], 0.4 nM; in data set [4], 14 nM; in data set [5], 5400 nM.

As to “Glandular kallikrein (from UniProt P06870)”, the Ki in data set [6] was 8.8 nM.

As to Plasma kallikrein (from UniProt P03952), the Ki in data set [7] is 86 nM.

With Plasmin (from UniProt P00747), in data set [8], the Ki is 81 nM.

In the case of “TFPI-2 (KD1-WT) KD1 (from UniProt P48307)”, the Ki in the data set with FXIa (Homo sapiens) [9] was 15 nM.

Consider “corn Hageman factor inhibitor (from UniProt P01088)”, for which the inhibition constant (Ki) with FXIa (Homo sapiens) [10] was 5400 nM.

Consider placental bikunin (from UniProt O43291), for which, in the data set with FXIa (Homo sapiens) [11], the Ki was 6 nM.

In the case of protease nexin-2 (from UniProt P05067), the inhibition constant (Ki) in the data set with FXIa (Homo sapiens) [12] is 0.4 nM.
